This passage reports fold co-immunoprecipitation against HA-KD results from PMC2987765.

This experiment has as its target Flag-tagged full length Ack1 (human) (UniProt Q07912). Nature of the experiment: co-IP; Cos7 cells transfected with FLAG-Ack1 alone or with HA-NKD or HA-KD; RIPA lysates (450-750 ug) incubated overnight at 4°C with FLAG M2 affinity gel, washed 5 times with RIPA buffer; blots with anti-HA and anti-FLAG; densitometry ratio HA-Ack1/Flag-Ack1.

Consider “HA-tagged Ack1 NKD (amino terminus plus kinase domain) (from UniProt Q07912 1-385) (domain or fragment)”, for which the fold co-immunoprecipitation against HA-KD is 3 fold.
